This passage reports response of the cells around pH 7, against the response in the acidic region (fraction of the response) and response of the cells around pH 8, against the response in the acidic region (fraction of the response) results from patent US20100040754A1.

This experiment deals with hT1R2-hT1R3, human sweetness receptor (human) (UniProt Q8TE23). In words: cell-based or functional assay.
UniProt Q8TE23, sequence (Q8TE23 20-839, chain 1 of 2): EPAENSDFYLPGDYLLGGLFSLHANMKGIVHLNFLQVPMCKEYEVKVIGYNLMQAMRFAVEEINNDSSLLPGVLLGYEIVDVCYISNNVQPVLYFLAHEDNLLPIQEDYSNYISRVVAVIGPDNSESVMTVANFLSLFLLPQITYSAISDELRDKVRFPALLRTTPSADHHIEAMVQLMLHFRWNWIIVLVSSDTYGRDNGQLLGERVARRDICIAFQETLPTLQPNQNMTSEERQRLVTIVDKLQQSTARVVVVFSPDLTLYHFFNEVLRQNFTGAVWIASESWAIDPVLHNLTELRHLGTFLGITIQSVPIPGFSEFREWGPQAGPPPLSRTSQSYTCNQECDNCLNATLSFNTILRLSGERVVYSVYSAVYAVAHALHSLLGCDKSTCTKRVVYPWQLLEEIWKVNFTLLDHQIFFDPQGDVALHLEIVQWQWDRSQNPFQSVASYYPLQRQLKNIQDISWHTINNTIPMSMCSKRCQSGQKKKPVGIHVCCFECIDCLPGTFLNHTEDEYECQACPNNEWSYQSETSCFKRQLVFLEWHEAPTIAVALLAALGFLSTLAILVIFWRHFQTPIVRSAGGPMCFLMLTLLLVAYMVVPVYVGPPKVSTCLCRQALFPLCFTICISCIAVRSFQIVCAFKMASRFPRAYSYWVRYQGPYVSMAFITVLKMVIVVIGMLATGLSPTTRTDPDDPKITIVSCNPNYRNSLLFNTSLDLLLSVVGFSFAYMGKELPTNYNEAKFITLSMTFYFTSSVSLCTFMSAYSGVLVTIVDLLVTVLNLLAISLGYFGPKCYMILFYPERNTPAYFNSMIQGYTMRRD
UniProt Q8TE23, sequence (Q7RTX0 21-852, chain 2 of 2, further chain): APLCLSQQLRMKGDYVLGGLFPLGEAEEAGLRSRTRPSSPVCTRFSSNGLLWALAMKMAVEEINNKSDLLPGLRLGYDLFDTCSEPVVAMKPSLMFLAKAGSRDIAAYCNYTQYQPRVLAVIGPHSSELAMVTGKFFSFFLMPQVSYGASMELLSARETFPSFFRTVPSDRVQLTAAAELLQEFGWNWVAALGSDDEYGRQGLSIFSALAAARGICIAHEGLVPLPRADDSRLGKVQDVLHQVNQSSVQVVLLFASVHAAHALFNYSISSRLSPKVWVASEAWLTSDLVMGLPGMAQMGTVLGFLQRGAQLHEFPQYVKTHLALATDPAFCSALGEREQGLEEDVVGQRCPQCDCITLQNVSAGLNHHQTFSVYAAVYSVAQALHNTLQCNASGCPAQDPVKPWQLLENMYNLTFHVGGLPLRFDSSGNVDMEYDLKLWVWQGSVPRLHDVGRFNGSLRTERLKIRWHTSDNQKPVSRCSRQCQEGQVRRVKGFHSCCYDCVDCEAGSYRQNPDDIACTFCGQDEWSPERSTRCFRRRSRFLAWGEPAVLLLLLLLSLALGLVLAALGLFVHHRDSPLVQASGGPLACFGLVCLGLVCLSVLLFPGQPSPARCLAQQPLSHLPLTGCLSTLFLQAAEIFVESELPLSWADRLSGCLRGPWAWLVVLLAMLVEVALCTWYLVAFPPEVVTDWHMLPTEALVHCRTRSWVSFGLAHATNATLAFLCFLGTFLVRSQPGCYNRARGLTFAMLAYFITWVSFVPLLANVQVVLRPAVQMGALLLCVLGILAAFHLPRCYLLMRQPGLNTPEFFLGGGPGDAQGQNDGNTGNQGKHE

“neoculin (heterodimer of polypeptide NAS and polypeptide NBS) (from UniProt Q6F495 23-135; P19667 23-136) (ligand)”: the response of the cells around pH 7, against the response in the acidic region (fraction of the response) amounted to 0.5 and the response of the cells around pH 8, against the response in the acidic region (fraction of the response) worked out at 0.1.
